“Also recorded” adds a separate entry of the source. Where a SMILES comes first, the peptide text is derived from it. [ ]: non-standard residue; d: D form. The star is where a group is joined. Sta = CC(C)C[C@H](N)[C@@H](O)CC(=O)O; Isovaleryl = CC(C)CC(=O)*
What was measured:
[1] = biological target: Cathepsin D and E; conditions: read-out: Ki for inhibition of Cathepsin D and E; cited from earlier work
[2] = cited from earlier work
[3] = Solubility in aqueous media; format: physicochemical; conditions: applicant's own observation
[4] = tested on: endo-lysosomal proteases of purified lysosomes from mouse macrophages; assay: In vitro digest of apo-HRP with purified macrophage lysosomes; format: biochemical; conditions: SDS-PAGE
Description: Lysosomes isolated from bone-marrow derived macrophages using a Percoll density-gradient fractionation (400 ng/μL, 3.6 μL) were resuspended in assay buffer (50 mM Citrate, pH 4.5, 0.5% Triton X-100; 59 μL) Inhibitor (70 μM; 12 μL in PBS+5% DMSO) was added and the mixture incubated for 15 minutes. Protein substrate (1 mg/mL in PBS, 9 μL) was added to the mixture and the reaction was incubated at 37° C. At the indicated timepoints 20 μL of the reaction mixture was removed and boiled with LDS-sample buffer and analysed by SDS-PAGE.

[5] = biological target: T1, mouse Cathepsin L (Mus musculus, UniProt P06797); assay: Inhibition studies of recombinant Cathepsin L; format: biochemical; conditions: compared among mutants R77C, L117C, T102C; 5 ng Cathepsin L/well
T1 construct: purchased R&D systems
Description: All protease inhibition studies were carried out as described previously^7-9 on a FLUOstar Optima Fluorimeter (BMG) with 360 nm excitation and 460 nm emission wavelength filters as described previously.^1-2,9-10 Recombinant Cathepsin D and Cathepsin S were purchased from R&D Systems.
The mixture was gently shaken at room temperature for 5 minutes prior to the addition of Z-Leu-Arg-AMC (40 μM in assay buffer, made from a 1 mM DMSO Stock solution). 7-amino-4-methylcoumarin release was measured by fluorescence spectroscopy over time. Initial rates were plotted against inhibitor concentration^11.

[6] = biological target: T2, AEP (Homo sapiens, UniProt Q99538); conditions: via a distinct binding site; read-out: Ki for inhibition of AEP; cited from earlier work
T2 sequence (Q99538 18-323): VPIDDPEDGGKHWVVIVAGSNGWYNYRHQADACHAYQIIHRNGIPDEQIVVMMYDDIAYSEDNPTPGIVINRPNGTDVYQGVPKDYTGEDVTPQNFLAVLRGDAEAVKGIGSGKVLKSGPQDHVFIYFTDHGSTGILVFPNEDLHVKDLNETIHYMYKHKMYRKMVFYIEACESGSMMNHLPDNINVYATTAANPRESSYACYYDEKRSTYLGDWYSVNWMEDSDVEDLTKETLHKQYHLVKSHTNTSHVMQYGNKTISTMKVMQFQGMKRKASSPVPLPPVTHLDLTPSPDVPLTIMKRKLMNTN

[7] = tested on: COS-7 cells, EGFr; assay: Effect on EGF receptor downregulation and EGF signalling (Western blot); format: cell-based
Description: COS7 cells growing in 12-well tissue culture plates were preincubated for 1 hour with or without cystatin C (0.35 mg/ml) or CPI (0.32 mg/ml) and then stimulated with 100 ng/ml EGF for the times shown. The cells were scraped from the well in 50 μl lysis buffer containing 50 mM Tris, 150 mM NaCl, 1 mM EGTA, 1 mM EDTA, 1% NP40 plus protease inhibitors (Roche, Miniprotease tablet). […] The blot was then stripped and reprobed for phosphor-Erk (p42/44 MAP kinase; Cell signalling) and as as loading control, Rsk2 (Santa Cruz) with appropriate secondary antibodies. The signals were quantitated using ImageJ analysis software.

T1 sequence (P06797 114-333 limits assumed): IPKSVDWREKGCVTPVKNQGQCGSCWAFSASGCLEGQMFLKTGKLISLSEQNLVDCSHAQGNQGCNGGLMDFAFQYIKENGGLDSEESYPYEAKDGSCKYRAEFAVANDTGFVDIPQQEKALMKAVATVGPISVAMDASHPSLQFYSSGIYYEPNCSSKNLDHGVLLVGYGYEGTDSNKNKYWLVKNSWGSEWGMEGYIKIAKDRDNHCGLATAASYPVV

## CC(C)CC(=O)N[C@H](C(=O)N[C@H](C(=O)N[C@@H](CC(C)C)[C@@H](O)CC(=O)N[C@@H](C)C(=O)N[C@@H](CC(C)C)[C@@H](O)CC(=O)O)C(C)C)C(C)C [pepstatin A] (Isovaleryl-VV[Sta]A[Sta]-OH)
[1]
  Ki: 0.1 nM
[2]
  solubility in aqueous media, in words: virtual insolubility in aqueous media
[3]
  water solubility, in words: insolubility; also recorded: very insoluble
[4]; FIG. 9, listed as pepstatin
  stabilization of apo-HRP against lysosomal degradation: little or no stabilization

B1: T102C: cystatin C mutant with threonine 102 replaced by cysteine, C-terminal 6His-tag (protein)
chain: SSPGKPPRLVGGPMDASVEEEGVRRALDFAVGEYNKASNDMYHSRALQVVRARKQIVAGVNYFLDVELGRTTCTKCQPNLDNCPFHDQPHLKRKAFCSFQIYAVPWQGTMTLSKSTCQDAHHHHHH
[5]
  inhibitory properties of cystatin C mutants: most favourable inhibitory properties

B2: cystatin C: naturally occurring 14 kDa protein that inhibits PLCPs and AEP (protein, listed as Homo sapiens)
chain: MAGPLRAPLLLLAILAVALAVSPAAGSSPGKPPRLVGGPMDASVEEEGVRRALDFAVGEYNKASNDMYHSRALQVVRARKQIVAGVNYFLDVELGRTTCTKTQPNLDNCPFHDQPHLKRKAFCSFQIYAVPWQGTMTLSKSTCQDA
modifications: Cystatin C
[6]
  Ki: 0.2 nM
[7]; 1 hour preincubation, 100 ng/ml EGF up to 90 min, Western blot
  EGFr level / downregulation after EGF challenge: suppressed EGFr downregulation but not to the same extent as CPI
[7]; COS-7 cells stimulated with EGF
  activation of MAP kinases Erk1/2 (check for inhibitor toxicity): normally
[4]; FIG. 9, listed as Cystatin C
  stabilization of apo-HRP against lysosomal degradation: appears to protect a fragment only
[4]; FIG. 9, listed as cystatin
  stabilization of apo-HRP against lysosomal degradation: little or no stabilization

Source: patent US9050374B2, “Inhibitors against endosomal/lysosomal enzymes” (UNIVERSITY COURT OF THE UNIVERSITY OF DUNDEE, priority 2011, dated 2015)
